Data published in paper PMC3361065 (Biochemistry, 2012).

T1: yeast MtRNAP with residues 1-264 deleted (ΔN2) (yeast, UniProt P13433 265-1351)
T1 sequence (looked up): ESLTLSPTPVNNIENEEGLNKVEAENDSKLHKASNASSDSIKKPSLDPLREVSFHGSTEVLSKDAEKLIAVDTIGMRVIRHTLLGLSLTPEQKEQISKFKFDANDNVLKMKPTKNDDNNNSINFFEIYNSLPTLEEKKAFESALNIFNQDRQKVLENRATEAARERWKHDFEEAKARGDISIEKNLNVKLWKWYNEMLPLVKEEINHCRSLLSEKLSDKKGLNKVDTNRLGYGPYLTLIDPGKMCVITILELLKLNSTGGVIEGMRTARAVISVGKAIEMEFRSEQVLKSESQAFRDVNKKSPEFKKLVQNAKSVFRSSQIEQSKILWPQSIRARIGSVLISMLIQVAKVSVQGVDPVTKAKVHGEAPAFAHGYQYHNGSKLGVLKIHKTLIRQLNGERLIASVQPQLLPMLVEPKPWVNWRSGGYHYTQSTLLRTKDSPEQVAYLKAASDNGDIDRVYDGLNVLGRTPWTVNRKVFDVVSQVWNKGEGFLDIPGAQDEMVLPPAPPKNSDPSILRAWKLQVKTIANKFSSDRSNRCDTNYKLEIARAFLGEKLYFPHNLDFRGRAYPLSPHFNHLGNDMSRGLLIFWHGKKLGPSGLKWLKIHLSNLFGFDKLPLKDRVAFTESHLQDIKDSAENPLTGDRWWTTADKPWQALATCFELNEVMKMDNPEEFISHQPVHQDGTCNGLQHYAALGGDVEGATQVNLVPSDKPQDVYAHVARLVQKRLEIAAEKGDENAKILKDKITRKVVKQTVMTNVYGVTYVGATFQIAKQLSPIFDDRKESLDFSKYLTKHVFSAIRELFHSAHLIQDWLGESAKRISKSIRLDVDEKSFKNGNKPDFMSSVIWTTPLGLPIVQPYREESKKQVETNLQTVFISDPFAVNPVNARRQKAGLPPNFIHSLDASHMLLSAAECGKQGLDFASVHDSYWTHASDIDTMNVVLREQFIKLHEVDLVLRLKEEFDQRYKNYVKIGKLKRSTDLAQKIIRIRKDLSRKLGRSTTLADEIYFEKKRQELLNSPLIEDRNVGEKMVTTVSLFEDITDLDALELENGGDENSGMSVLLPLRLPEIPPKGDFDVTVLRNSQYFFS

T2: yeast MtRNAP with residues 1-358 deleted (ΔN1) (yeast, UniProt P13433 359-1351)
T2 sequence (looked up): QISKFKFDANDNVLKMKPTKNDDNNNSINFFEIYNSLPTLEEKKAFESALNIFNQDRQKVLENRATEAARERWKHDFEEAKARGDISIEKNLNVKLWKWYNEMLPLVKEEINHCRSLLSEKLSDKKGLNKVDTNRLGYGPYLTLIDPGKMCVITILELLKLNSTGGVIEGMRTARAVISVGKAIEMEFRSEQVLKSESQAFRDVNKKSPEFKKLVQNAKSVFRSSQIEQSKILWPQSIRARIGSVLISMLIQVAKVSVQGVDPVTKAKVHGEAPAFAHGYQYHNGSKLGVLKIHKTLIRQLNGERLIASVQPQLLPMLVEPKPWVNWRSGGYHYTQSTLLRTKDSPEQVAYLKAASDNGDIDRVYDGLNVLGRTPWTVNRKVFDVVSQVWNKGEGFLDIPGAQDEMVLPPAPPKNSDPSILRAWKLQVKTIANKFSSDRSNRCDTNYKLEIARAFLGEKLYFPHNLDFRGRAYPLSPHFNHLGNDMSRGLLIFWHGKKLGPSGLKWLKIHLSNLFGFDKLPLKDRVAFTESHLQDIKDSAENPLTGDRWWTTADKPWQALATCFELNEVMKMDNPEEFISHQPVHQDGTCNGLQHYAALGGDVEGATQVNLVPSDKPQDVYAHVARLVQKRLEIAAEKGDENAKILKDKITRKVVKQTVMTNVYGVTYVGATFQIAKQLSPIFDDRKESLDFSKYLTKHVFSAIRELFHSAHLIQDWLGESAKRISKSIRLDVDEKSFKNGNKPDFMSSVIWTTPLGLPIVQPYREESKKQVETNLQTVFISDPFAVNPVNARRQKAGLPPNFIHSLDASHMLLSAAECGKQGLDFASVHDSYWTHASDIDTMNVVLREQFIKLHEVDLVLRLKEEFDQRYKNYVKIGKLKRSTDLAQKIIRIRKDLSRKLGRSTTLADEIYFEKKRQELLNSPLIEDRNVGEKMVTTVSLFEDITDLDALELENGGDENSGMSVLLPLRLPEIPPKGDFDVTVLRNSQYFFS


Columns and labels:
[1] = target: yeast mitochondrial RNA polymerase (scMtRNAP) WT;MTF1 (yeast mitochondrial transcription factor) (Saccharomyces cerevisiae?;Saccharomyces …, UniProt P13433;P14908 1-1351;1-341, |); assay: EMSA
[2] = target: T1, yeast MtRNAP with residues 1-264 …; assay: native gel or EMSA
[3] = target: T2, yeast MtRNAP with residues 1-358 …; assay: ultrafiltration retention

Chain of yeast mitochondrial RNA polymerase (scMtRNAP) WT;MTF1 (yeast mitochondrial transcription factor) (P13433 whole entry, chain 1 of 2, one chain of several, the tested form may be a part): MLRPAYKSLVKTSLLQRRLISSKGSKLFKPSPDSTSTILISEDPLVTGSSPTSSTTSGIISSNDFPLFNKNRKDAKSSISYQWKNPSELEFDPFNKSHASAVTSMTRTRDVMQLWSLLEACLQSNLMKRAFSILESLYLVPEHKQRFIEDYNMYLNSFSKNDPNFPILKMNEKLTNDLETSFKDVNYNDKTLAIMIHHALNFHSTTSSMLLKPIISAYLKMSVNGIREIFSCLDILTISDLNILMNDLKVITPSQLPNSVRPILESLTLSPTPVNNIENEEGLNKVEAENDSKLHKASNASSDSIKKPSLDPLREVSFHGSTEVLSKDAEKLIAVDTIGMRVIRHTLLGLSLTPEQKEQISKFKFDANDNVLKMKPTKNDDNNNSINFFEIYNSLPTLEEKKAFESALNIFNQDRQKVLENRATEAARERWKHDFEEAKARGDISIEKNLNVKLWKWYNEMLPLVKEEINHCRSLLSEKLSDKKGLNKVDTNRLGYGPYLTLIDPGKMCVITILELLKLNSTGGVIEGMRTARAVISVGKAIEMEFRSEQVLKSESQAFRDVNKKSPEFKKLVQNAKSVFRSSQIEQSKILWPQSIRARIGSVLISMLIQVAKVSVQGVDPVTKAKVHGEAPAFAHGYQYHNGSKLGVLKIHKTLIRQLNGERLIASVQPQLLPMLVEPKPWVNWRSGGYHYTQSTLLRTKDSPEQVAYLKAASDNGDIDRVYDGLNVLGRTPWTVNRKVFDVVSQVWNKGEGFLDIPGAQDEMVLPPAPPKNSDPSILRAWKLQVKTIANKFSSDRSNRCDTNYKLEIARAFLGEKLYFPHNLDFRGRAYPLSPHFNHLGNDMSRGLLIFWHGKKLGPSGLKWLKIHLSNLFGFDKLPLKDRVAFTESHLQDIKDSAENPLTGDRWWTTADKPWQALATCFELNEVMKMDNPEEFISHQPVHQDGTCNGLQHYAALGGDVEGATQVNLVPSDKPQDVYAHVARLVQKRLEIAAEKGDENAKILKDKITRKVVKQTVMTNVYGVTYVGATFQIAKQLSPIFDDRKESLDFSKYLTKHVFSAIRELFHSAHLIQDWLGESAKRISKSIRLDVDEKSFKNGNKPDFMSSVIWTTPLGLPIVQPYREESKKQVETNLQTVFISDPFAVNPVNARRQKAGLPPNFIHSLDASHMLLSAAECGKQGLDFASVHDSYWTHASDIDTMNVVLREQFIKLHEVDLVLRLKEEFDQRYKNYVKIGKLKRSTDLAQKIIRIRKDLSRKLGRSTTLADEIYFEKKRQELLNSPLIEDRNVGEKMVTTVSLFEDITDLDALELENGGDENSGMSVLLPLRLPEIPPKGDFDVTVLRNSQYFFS

binding result [2]	binding result [3]	Binder	Kd [1] [nM]
–	–	33 bp Duplex promoter (dsDNA) DNA 1: CGCGTAAAACTATTCTTTATTACTTATATCGCG DNA 2: CGCGATATAAGTAATAAAGAATAGTTTTACGCG	480
binds	binds	yeast mitochondrial transcription factor MTF1 (natural protein, UniProt P14908 1-341, looked up) MSVPIPGIKDISKLKFFYGFKYLWNPTVYNKIFDKLDLTKTYKHPEELKVLDLYPGVGIQSAIFYNKYCPRQYSLLEKRSSLYKFLNAKFEGSPLQILKRDPYDWSTYSNLIDEERIFVPEVQSSDHINDKFLTVANVTGEGSEGLIMQWLSCIGNKNWLYRFGKVKMLLWMPSTTARKLLARPGMHSRSKCSVVREAFTDTKLIAISDANELKGFDSQCIEEWDPILFSAAEIWPTKGKPIALVEMDPIDFDFDVDNWDYVTRHLMILKRTPLNTVMDSLGHGGQQYFNSRITDKDLLKKCPIDLTNDEFIYLTKLFMEWPFKPDILMDFVDMYQTEHSG	–
